T1: full length WT dynamin-1 (UniProt Q05193)
T1 sequence: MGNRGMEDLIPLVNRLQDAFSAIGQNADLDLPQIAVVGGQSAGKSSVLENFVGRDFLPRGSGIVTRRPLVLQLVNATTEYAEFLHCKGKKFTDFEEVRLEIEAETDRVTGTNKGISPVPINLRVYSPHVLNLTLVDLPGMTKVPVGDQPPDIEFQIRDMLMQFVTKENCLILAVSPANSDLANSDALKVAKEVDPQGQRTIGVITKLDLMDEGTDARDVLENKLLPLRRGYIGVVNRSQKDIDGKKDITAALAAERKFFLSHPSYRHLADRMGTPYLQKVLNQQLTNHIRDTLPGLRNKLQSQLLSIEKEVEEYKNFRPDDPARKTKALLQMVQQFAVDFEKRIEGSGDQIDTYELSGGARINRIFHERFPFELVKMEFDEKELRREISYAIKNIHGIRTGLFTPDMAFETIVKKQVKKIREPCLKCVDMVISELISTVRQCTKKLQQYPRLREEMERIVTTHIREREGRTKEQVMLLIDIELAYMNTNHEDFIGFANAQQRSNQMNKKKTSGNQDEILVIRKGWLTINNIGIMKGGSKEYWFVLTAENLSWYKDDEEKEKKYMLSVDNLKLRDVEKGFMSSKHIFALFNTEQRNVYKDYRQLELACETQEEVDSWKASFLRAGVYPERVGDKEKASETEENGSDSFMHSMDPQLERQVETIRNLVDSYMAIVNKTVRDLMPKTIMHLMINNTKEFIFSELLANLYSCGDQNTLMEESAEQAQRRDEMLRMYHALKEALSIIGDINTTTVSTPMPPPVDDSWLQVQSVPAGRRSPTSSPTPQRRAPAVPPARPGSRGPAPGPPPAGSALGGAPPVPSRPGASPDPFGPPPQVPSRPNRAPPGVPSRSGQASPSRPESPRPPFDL

B1: full length S45N dynamin-1 (enzyme)
chain: MGNRGMEDLIPLVNRLQDAFSAIGQNADLDLPQIAVVGGQSAGKNSVLENFVGRDFLPRGSGIVTRRPLVLQLVNATTEYAEFLHCKGKKFTDFEEVRLEIEAETDRVTGTNKGISPVPINLRVYSPHVLNLTLVDLPGMTKVPVGDQPPDIEFQIRDMLMQFVTKENCLILAVSPANSDLANSDALKVAKEVDPQGQRTIGVITKLDLMDEGTDARDVLENKLLPLRRGYIGVVNRSQKDIDGKKDITAALAAERKFFLSHPSYRHLADRMGTPYLQKVLNQQLTNHIRDTLPGLRNKLQSQLLSIEKEVEEYKNFRPDDPARKTKALLQMVQQFAVDFEKRIEGSGDQIDTYELSGGARINRIFHERFPFELVKMEFDEKELRREISYAIKNIHGIRTGLFTPDMAFETIVKKQVKKIREPCLKCVDMVISELISTVRQCTKKLQQYPRLREEMERIVTTHIREREGRTKEQVMLLIDIELAYMNTNHEDFIGFANAQQRSNQMNKKKTSGNQDEILVIRKGWLTINNIGIMKGGSKEYWFVLTAENLSWYKDDEEKEKKYMLSVDNLKLRDVEKGFMSSKHIFALFNTEQRNVYKDYRQLELACETQEEVDSWKASFLRAGVYPERVGDKEKASETEENGSDSFMHSMDPQLERQVETIRNLVDSYMAIVNKTVRDLMPKTIMHLMINNTKEFIFSELLANLYSCGDQNTLMEESAEQAQRRDEMLRMYHALKEALSIIGDINTTTVSTPMPPPVDDSWLQVQSVPAGRRSPTSSPTPQRRAPAVPPARPGSRGPAPGPPPAGSALGGAPPVPSRPGASPDPFGPPPQVPSRPNRAPPGVPSRSGQASPSRPESPRPPFDL
B2: full length Q40E dynamin-1 (enzyme)
chain: MGNRGMEDLIPLVNRLQDAFSAIGQNADLDLPQIAVVGGESAGKSSVLENFVGRDFLPRGSGIVTRRPLVLQLVNATTEYAEFLHCKGKKFTDFEEVRLEIEAETDRVTGTNKGISPVPINLRVYSPHVLNLTLVDLPGMTKVPVGDQPPDIEFQIRDMLMQFVTKENCLILAVSPANSDLANSDALKVAKEVDPQGQRTIGVITKLDLMDEGTDARDVLENKLLPLRRGYIGVVNRSQKDIDGKKDITAALAAERKFFLSHPSYRHLADRMGTPYLQKVLNQQLTNHIRDTLPGLRNKLQSQLLSIEKEVEEYKNFRPDDPARKTKALLQMVQQFAVDFEKRIEGSGDQIDTYELSGGARINRIFHERFPFELVKMEFDEKELRREISYAIKNIHGIRTGLFTPDMAFETIVKKQVKKIREPCLKCVDMVISELISTVRQCTKKLQQYPRLREEMERIVTTHIREREGRTKEQVMLLIDIELAYMNTNHEDFIGFANAQQRSNQMNKKKTSGNQDEILVIRKGWLTINNIGIMKGGSKEYWFVLTAENLSWYKDDEEKEKKYMLSVDNLKLRDVEKGFMSSKHIFALFNTEQRNVYKDYRQLELACETQEEVDSWKASFLRAGVYPERVGDKEKASETEENGSDSFMHSMDPQLERQVETIRNLVDSYMAIVNKTVRDLMPKTIMHLMINNTKEFIFSELLANLYSCGDQNTLMEESAEQAQRRDEMLRMYHALKEALSIIGDINTTTVSTPMPPPVDDSWLQVQSVPAGRRSPTSSPTPQRRAPAVPPARPGSRGPAPGPPPAGSALGGAPPVPSRPGASPDPFGPPPQVPSRPNRAPPGVPSRSGQASPSRPESPRPPFDL

Target: T1, full length WT dynamin-1

Binder | inhibition of fission activity (vesicle release from SUPER templates) of 0.5 µM WT dynamin-1 by increasing S45N (∼50% at mutant:WT 0.5; value given at 1:1), 1 mM GTP, room temperature | inhibition of fission activity (vesicle release from SUPER templates) of 0.5 µM WT dynamin-1 by increasing Q40E (∼50% at mutant:WT 0.5; value given at 1:1), 1 mM GTP, room temperature
B1 | 80% | –
B2 | – | 60%

From PMC3561337
